Source: patent US20020076795A1, “Novel TRF1 binding protein, methods of use thereof” (published 2002)

Tests used:
TRF1 (hTRF1) = TRF1 (hTRF1) (Homo sapiens, UniProt P54274 P54274:2-439); assay: EMSA; 13-120 ng TRF1 per 20 ul, 1 ng probe, 20 mM Hepes-KOH pH 7.9, 100 mM KCl, 100 ng sheared E. coli DNA, room temperature; slight nonspecific stimulation by tankyrase without NAD+; conditions: tags: baculovirus-derived (Bianchi et al. 1997); chain copies: 2 (homodimer, stated; several dimers per probe at high concentration); label: end-labeled
Description: Biol. 12:4834 (1992)] containing 12 tandem TTAGGG repeats. Baculovirus-derived TRF1 (13 to 120 ng) [Bianchi et al. EMBO J. 16:1785 (1997)] was incubated for 30 minutes at room temperature in a 20 μl reaction containing 20 mM Hepes-KOH (pH 7.9), 100 mM KCL, 0.5 mM DTT, 5% glycerol, 0.1% NP40, 100 ng sheared E. coli DNA, 100 ng β-casein, and 1 ng of labeled probe. In some cases, reactions were supplemented with NAD⁺ (0.2 mM) and baculovirus-derived human tankyrase (2.5 to 200 ng). Samples were fractionated on a 0.7% agarose gel run in 0.1× TBE (8.9 mM Tris-base, 8.9 mM Boric acid, and 0.2 mM EDTA) at 130 volts for 1 hour at room temperature. Gels were dried onto Whatman DE81 paper and autoradiographed.

[1] = biological target: T1, human full length TRF1 fused to LexA (LexA-TRF1) (human, UniProt P0A7C2 1-202; P54274 2-439); assay: yeast two-hybrid, β-galactosidase; GAD without tankyrase sequences
T1 construct: The construct comes from Bianchi et al. 1997; also called LexA-FL
T1 sequence (looked up): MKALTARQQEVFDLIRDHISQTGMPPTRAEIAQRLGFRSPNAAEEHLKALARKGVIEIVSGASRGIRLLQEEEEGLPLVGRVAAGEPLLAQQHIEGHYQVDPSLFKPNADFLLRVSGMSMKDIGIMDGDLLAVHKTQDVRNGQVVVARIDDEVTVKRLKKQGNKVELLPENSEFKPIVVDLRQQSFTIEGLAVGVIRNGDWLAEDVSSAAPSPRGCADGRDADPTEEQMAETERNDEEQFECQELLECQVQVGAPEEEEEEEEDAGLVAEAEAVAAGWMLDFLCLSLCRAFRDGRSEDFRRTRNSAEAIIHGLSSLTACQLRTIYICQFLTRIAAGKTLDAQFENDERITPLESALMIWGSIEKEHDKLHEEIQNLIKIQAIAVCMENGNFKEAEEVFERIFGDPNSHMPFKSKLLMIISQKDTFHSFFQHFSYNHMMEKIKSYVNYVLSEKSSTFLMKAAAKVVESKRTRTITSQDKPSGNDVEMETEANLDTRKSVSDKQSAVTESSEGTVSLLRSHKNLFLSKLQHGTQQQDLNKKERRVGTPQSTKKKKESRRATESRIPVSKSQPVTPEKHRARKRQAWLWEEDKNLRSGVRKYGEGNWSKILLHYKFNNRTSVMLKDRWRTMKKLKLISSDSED
Description: TR1L-4 and TR1L-12 were isolated from a human liver two-hybrid cDNA library (Clontech) created in pGad10. The library was screened with human full length TRF1 cDNA fused to LexA (LexA-TRF1) [Bianchi et al., EMBO J., 16:1785-1794 (1997)] in the yeast strain L40 as described [Hollenberg et al., Mol. Cell Biol., 15:3813-3822 (1995)]. Two-hybrid analysis was performed as described by Bianchi et al. [EMBO J., 16:1785-1794 (1997)]. β-galactosidase assays for the two-hybrid analysis was performed as described by Bianchi et al. [EMBO J., 16:1785-1794 (1997)].
Two-hybrid analysis was used to determine the interacting domains between tankyrase and TRF1. […] To determine the tankyrase-interacting domain in TRF1, two-hybrid analysis was performed with the 10-ANK repeat domain of TR1L-12 fused to the GAL4 activation domain (GAD-tankyrase) and full-length and deletion constructs of TRF1 fused to LexA. […] As observed previously, the amino-terminal acidic domain of TFR1 (LexAd68-C) activated transcription even in the absence of tankyrase sequences in the GAD fusion partner. […] Deletion of the acidic domain of TRF1 (ΔN66-LexA) abolished the interaction with GAD-tankyrase.

B1: [TTAGGG]12 duplex, 142 bp HindIII-Asp718 fragment of pTH12 (dsDNA)
DNA 1: TTAGGGTTAGGGTTAGGGTTAGGGTTAGGGTTAGGGTTAGGGTTAGGGTTAGGGTTAGGGTTAGGGTTAGGG
DNA 2: CCCTAACCCTAACCCTAACCCTAACCCTAACCCTAACCCTAACCCTAACCCTAACCCTAACCCTAACCCTAA
B1: binds (TRF1 (hTRF1)).

B2: GAL4 activation domain (GAD) (alone) (other, UniProt P04386 768-881, looked up)
chain: ANFNQSGNIADSSLSFTFTNSSNGPNLITTQTNSQALSQPIASSNVHDNFMNNEITASKIDDGNNSKPLSPGWTDQTAYNAFGITTGMFNTTTMDDVYNYLFDDEDTPPNPKKE
notes: Control
B2: no binding [1].
